Experimental data reported in patent US10934559B2, “Hypersensitive ABA receptors” (The Regents of the University of California, priority 2014, dated 2021).
Numbering of substitutions follows the chain as printed. In names and notes the source's numbering stands. Like-named read-outs stand apart in the source and are kept apart here.

B1: A160V: PYR1 mutant A160V, SEQ ID NO:141; for ITC the cleaved recombinant protein with NH2-terminal QS appendage (protein)
chain: MPSELTPEERSELKNSIAEFHTYQLDPGSCSSLHAQRIHAPPELVWSIVRRFDKPQTYKHFIKSCSVEQNFEMRVGCTRDVIVISGLPANTSTERLDILDDERRVTGFSIIGGEHRLTNYKSVTTVHRFEKENRIWTVVLESYVVDMPEGNSEDDTRMFVDTVVKLNLQKLATVAEAMARNSGDGSGSQVT
modifications: N-terminal QS appendage for ITC; synthetic Arabidopsis PYR1 mutant A160V
B2: V81Y: PYR1 mutant V81Y, SEQ ID NO:127 (protein)
chain: B1 chain with V81Y, V160A
modifications: synthetic Arabidopsis PYR1 mutant V81Y
B3: I110C: PYR1 mutant I110C, SEQ ID NO:128 (protein)
chain: B1 chain with I110C, V160A
modifications: synthetic Arabidopsis PYR1 mutant I110C

How the values were obtained:
[1] = test system: HAB1; experiment: PYR1 mutant-HAB1 yeast two-hybrid assay under different ABA concentrations (X-gal staining); format: cell-based; conditions: lowest (+)-ABA concentration giving detectable X-gal staining; S. cerevisiae Y190 with pACT-HAB1; 30° C., 48 hours
Excerpt: The affinity of a receptor for a target ligand is typically determined by non-covalent interactions between ligand-binding residues and the ligand. Mutations in such residues can have negative, positive or neutral effects on the strength of the receptor—ligand interaction. The affinity of a receptor-ligand interaction is intrinsically correlated with the concentration of ligand required to elicit biological effects, with high affinity ligands requiring lower concentrations relative to low affinity ligands. A mutant receptor with increased affinity for a ligand can in some cases elicit greater biological effect relative to a wild type receptor, when both are activated under identical conditions by the same concentration of activating ligand. Thus, mutations that make a receptor hypersensitive to a ligand can be useful for engineering organisms that elicit stronger responses to the ligand relative to wild type. […] Based on these considerations, we set out to systematically establish specific ABA receptor mutations that increase ABA responsiveness. This was done by testing a collection of PYR1 variants with all possible single amino acid substitution mutations in ligand binding residues. Thus we conducted site-saturated mutagenesis of ABA-contacting residues, which we define as those that are within 5A or ABA or ABA-contacting water residues in available X-ray coordinates. This collection of mutants was constructed previously, as described in PCT Application No. PCT/US2012/043121 and Mosquna et al., Proc Natl Acad Sci USA 108: 20838-20843 (2011). This collection of mutants was made by mutagenizing a previously described pBD GAL-PYR1 template (Park, S.-Y., et al. Science 324, 1068-1071 ([…])). In response to ABA, this particular plasmid encodes a fusion protein that binds to a co-expressed GAL4 activation domain-HAB1 fusion protein, encoded by the plasmid pACT-HAB1. This binding reconstitutes a functional GAL4 transcriptional activator and subsequent transcription of a β-galactosidase reporter gene, which in turn enables colorimetric based detection of agonist promoted receptor-PP2C interaction when lysed cells are exposed to the substrate X-gal. The mutant clones were individually transformed into S. cerevisiae strain Y190 containing pACT-HAB1. Yeast transformants were selected for the presence of plasmids on synthetic dextrose (SD) agar plates lacking Leu and Trp (SD-LT) and examined for PP2C interactions by using X-gal staining to monitor β-gal reporter gene expression levels. Individual clones were arrayed into 96 well plates and then spotted onto SD-LT lawn (i.e. one-well) plates containing 0, 0.5 or 5.0 μM (+)-ABA. Each assay plate contained 95 mutant clones and one wild type PYR1 positive control clone. The spotted cells were cultured at 30° C. for 48 hours after which they were lysed by chloroform and stained with an X-gal solution, as previously described (Park, S.-Y., et al. (2009) Science 324, 1068-1071). […] After this initial screening exercise, all positives clones were retested on plates containing […] and stained for galactosidase activity as described above. Mutant clones showing detectable staining on 0.5 μM (+)-ABA or lower were scored as hypersensitive mutants. FIG. 1 depicts results of PYR1 mutant-HAB1 interactions as assayed in a yeast two-hybrid assay under different ABA concentrations, with darker spots indicating increased interaction.

[2] = previously measured, Dupeux et al. 2010; read-out: affinity of wild type PYR1 (Kd) measured using ITC; cited from earlier work
[3] = isothermal titration calorimetry (ITC) of receptor-ABA binding; conditions: 600 μM (+)-ABA injected into 60 μM receptor; PBS, 1 mM 2-mercaptoethanol, 0.012% DMSO; single binding site model
Excerpt: The ligand sensitivity of PYR1 and HAB1 yeast two hybrid strains generally correlates with receptor affinity. To examine if this was the case for the hypersensitive mutations identified by our functional screens, we conducted isothermal titration calorimetry (ITC) to measure the heat produced by a mutant receptor-ABA binding reaction and infer the ligand binding dissociation constant (Kd). […] The PYR1-A160V mutant receptor was expressed in E. coli BL21(DE3) as a fusion to the small ubiquitin like protein SUMO, using the vector pSUMO (LifeSensors, USA), which improves the solubility of proteins in E. coli and contains an NH2-terminal hexa-histidine tag that facilitates purification using immobilized metal affinity chromatography (IMAC). PYR1 A160V was cloned into pSUMO by using PCR product generated from a pBD-PYR1(A160V) yeast two hybrid construct as template, and sequence validated. A short flexible linker and tobacco etch virus (TEV) protease cleavage site (sequence NH2-[…]-COOH; SEQ ID NO:411) was incorporated in between the SUMO tag and the receptor to enable cleavage of the recombinant protein by TEV protease, which yields PYR1(A160V) plus an NH2-terminal QS appendage. […]

Kd [3] [µM] | Molecule | Minimal conc. For ABA response [1] [µM] | Kd [2] [µM]
 | WT: Arabidopsis wildtype PYR1 ABA receptor, SEQ ID NO:1 [reference compound] | 1 | 97 ± 36
1.5 | B1 | 0.25 | 
 | B2 | 0.25 | 
 | B3 | 0.25 | 
